In patent publication US20240325549A1 (HANGZHOU ZHONGMEIHUADONG PHARMACEUTICAL, published 2024):

T1: human GIP receptor (human, UniProt P48546 22-466)
T1 construct: whole, on cells; Functional assays: HEK293/GIPR cells and transiently transfected CHO-K1 cells; also called hGIPR
T1 sequence (looked up): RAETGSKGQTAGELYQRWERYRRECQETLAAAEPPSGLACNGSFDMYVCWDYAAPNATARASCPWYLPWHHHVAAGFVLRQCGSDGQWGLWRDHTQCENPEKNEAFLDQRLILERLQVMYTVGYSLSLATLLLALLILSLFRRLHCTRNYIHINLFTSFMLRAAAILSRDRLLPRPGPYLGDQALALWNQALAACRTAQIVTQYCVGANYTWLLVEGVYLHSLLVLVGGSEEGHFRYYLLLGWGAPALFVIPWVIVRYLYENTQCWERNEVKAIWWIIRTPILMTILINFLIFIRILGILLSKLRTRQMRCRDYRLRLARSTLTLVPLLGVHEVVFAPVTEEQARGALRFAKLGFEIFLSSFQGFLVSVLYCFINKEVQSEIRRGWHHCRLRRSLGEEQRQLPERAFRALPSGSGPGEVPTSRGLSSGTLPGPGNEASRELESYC

B1: P007 (peptide)
peptide: YXEGTXTSDYXIXLDKQAQAEFVKWLLKGGPSSGAPPPSK
modifications: Aib at 2, αMePhe at 6, Aib at 11, Aib at 13; K at position 24 conjugated at the ε-amino with ([2-(2-amino-ethoxy)-ethoxy]-acetyl)2-(γ-Glu)1-CO-(CH2)16-CO2H; C-terminal primary amide
B2: P008 (peptide)
peptide: B1 peptide
modifications: Aib at 2, αMePhe at 6, Aib at 11, Aib at 13; K at position 28 conjugated at the ε-amino with ([2-(2-amino-ethoxy)-ethoxy]-acetyl)2-(γ-Glu)1-CO-(CH2)16-CO2H; C-terminal primary amide
B3: P013 (peptide)
peptide: B1 peptide
modifications: Aib at 2, αMePhe at 6, Aib at 11, Aib at 13; K at position 24 conjugated at the ε-amino with ([2-(2-amino-ethoxy)-ethoxy]-acetyl)2-(γ-Glu)1-CO-(CH2)18-CO2H; C-terminal primary amide

What follows are binders tested against T2, human GLP-1 receptor (human, UniProt P43220 24-463) (assay: radioligand competition: displacement of [125I]GLP-1 from membranes of cells over-expressing human GLP-1R; ratio = Ki of GLP-1 / Ki of compound).
T2 construct: whole, on cells; Functional assays: HEK293/CRE/GLP-1R cells, human GLP-1R-HEK cells and transiently transfected CHO-K1 cells; also called hGLP-1R
Experimental: 89 μL of membrane dissolved in binding buffer (50 mM Hepes, pH 7.4, 5 mM MgCl₂, 5 mM EDTA, 0.005% TWEEN, 0.005% HSA) is transferred to a 96-well test plate (5 μg/well). The compound is serially diluted in DMSO, and then, 1 μL of the diluted compound or 100% DMSO is added to the test plate containing the membrane solution. 10 μL of [¹²⁵I] […] The test plate is left at room temperature for 90 minutes. The membrane complexes are harvested into a GF/B plate pre-coated with 0.5% PEI by using a Cell Harvester, and washed for 3 times with 500 μL of pre-cooled elution buffer (50 mM Hepes, pH 7.4, 500 mM NaCl) at 4° C. After drying at 37° C. for 2 hours, 50 μL of scintillation fluid is added to each well. The plate is read with a MicroBeta2 scintillation counter after sealing and settling for at least 1 hour so as to determine the membrane bound radioligand level.

| Binder | Ki ratio |
| --- | --- |
| YXEGTXTSDYXIXLDKQAQAEFVKWLLKGGPSSGAPPPSK (Aib at 2, αMePhe at 6, Aib at 11, Aib at 13; C-terminal primary amide) [P001] | 19.5 ratio |
| B1 | 0.47 ratio |
| B2 | 1.09 ratio |
| B3 | 0.28 ratio |

The binders below were run against T1, human GIP receptor (assay: radioligand competition: displacement of [125I]GIP from membranes of cells over-expressing human GIPR; ratio = Ki of GIP / Ki of compound).
Experimental: 98 μL of membrane dissolved in binding buffer (50 mM HEPES pH 7.4, 5 mM MgCl₂, 1 mM CaCl₂, 0.1% BSA, 0.005% Tween-20) is transferred to a 96-well test plate (15 μg/well). The compound is serially diluted in DMSO, and then, 2 μL of the diluted compounds or 100% DMSO is added to the test plate containing the membrane solution. […] The test plate is left at room temperature for 90 minutes. […] After drying at 37° C. for 2 hours, 50 μL of scintillation fluid is added to each well. The plate is read with a MicroBeta2 scintillation counter after sealing and settling for at least 1 hour so as to determine the membrane bound radioligand level.

| Binder | Ki ratio |
| --- | --- |
| YXEGTXTSDYXIXLDKQAQAEFVKWLLKGGPSSGAPPPSK (Aib at 2, αMePhe at 6, Aib at 11, Aib at 13; C-terminal primary amide) [P001] | 8.82 ratio |
| B2 | 0.16 ratio |
| B3 | 0.14 ratio |

Each binder was assayed against T1, human GIP receptor (assay: cell-based or functional assay).

| Binder | EC50 value (ratio of the EC50 of the endogenous ligand GIP to the EC50 of the test compound), LANCE Ultra cAMP assay in HEK293/GIPR cells |
| --- | --- |
| YXEGTXTSDYXIXLDKQAQAEFVKWLLKGGPSSGAPPPSK (Aib at 2, αMePhe at 6, Aib at 11, Aib at 13; C-terminal primary amide) [P001] | 7.13 ratio |
| B1 | 1.15 ratio |
| B2 | 1.67 ratio |
| B3 | 0.86 ratio |

The binders below were run against T2, human GLP-1 receptor (assay: cell-based or functional assay).

| Binder | EC50 value (ratio of the EC50 of the endogenous ligand GLP-1 to the EC50 of the test compound), cAMP reporter gene (luciferase) assay in HEK293/CRE/GLP-1R cells |
| --- | --- |
| YXEGTXTSDYXIXLDKQAQAEFVKWLLKGGPSSGAPPPSK (Aib at 2, αMePhe at 6, Aib at 11, Aib at 13; C-terminal primary amide) [P001] | 52.1 ratio |
| B1 | 5.84 ratio |
| B2 | 4.79 ratio |
| B3 | 2.41 ratio |
